US20200376034A1 (DRAGONFLY THERAPEUTICS, published 2020)
Blank lines part the entries; values can stand above or below the binder they belong to.

Tests used:
[1] = target: T1, human CD33 extracellular domain (human, UniProt P20138 18-259); assay: SPR, Fab captured, 37 C
T1 construct: also called human CD33 ECD; hCD33
Procedure: (§1) Kinetics and affinity of a series of Fab fragments of anti-CD33 antibodies with different CD33 variants (human CD33 ECD, cyno CD33 ECD, V-domain of human CD33, C-domain or human CD33 and selected CD33 SNPs) were assessed by surface plasmon resonance using Biacore 8K instrument (GE Healthcare). Anti-Fab antibody was immobilized on a CMS chip using standard amine coupling chemistry. CD33 FABs were captured on the anti-Fab chip at a density of ˜100 RU. Solutions containing different concentrations of soluble monomeric CD33 or its domains were injected over the captured FABs and control surfaces at 30 μl/min at 37° C. Surfaces were regenerated between cycles by quick injection of 10 mM glycine, pH 1.8. To obtain kinetic rate constants double-referenced data were fit to a 1:1 interaction model using Biacore 8K Evaluation software (GE Healthcare). The equilibrium binding constant KD was determined by the ratio of binding rate constants kd/kₐ.
(§2) Affinity of 29 Fab fragments binding to human and cyno CD33 ECD were assayed by Biacore analysis.

[2] = target: T1, human CD33 extracellular domain; assay: SPR, Fab captured, 37 C; remark: listed apart in the source
Procedure: as §1, §2

[3] = target: T1, human CD33 extracellular domain; assay: SPR, Fab captured, 37 C; remark: listed apart in the source
Procedure: as §1, §2

[4] = target: T1, human CD33 extracellular domain; assay: SPR, Fab captured, 37 C; remark: listed apart in the source
Procedure: as §1

[5] = target: T2, deglycosylated V domain of human CD33 (human, UniProt P20138 18-139, limits assumed, deglycosylated by PNGase); assay: SPR, Fab captured, 37 C
T2 construct: whole entry named; also called deglycosylated V CD33
Procedure: as §1
The ability of anti-CD33 antibodies to recognize glycosylated CD33 was assayed. […] De-glycosylation status was confirmed by a shift on SDS-PAGE and MS.

[6] = target: T1, human CD33 extracellular domain; assay: BLI, IgG on sensor
Procedure: Briefly, ForteBio affinity measurements were performed by loading IgGs on-line onto AHC sensors. Sensors were equilibrated off-line in assay buffer for 30 min and then monitored on-line for 60 seconds for baseline establishment. Sensors with loaded IgGs were exposed to 100 nM antigen for 3 minutes, and afterwards were transferred to assay buffer for 3 min for off-rate measurement. All kinetics were analyzed using the 1:1 binding model.

koff [1]: 0.0275 s⁻¹
kon [1]: 515000 M⁻¹ s⁻¹
koff [2]: 0.0275 s⁻¹
kon [2]: 515000 M⁻¹ s⁻¹
koff [3]: 0.0275 s⁻¹
kon [3]: 515000 M⁻¹ s⁻¹
koff [4]: 0.0275 s⁻¹
kon [4]: 515000 M⁻¹ s⁻¹
koff [5]: 0.256 s⁻¹
kon [5]: 1.68e+06 M⁻¹ s⁻¹
B1: ADI-10163 Fab (Fab, V domains shown)
VH: QVQLQESGPGLVKPSQTLSLTCTVSGGSISSGGYYWSWIRQHPGKGLEWIGSIYYSGSTYYNPSLKSRVTISVDTSKNQFSLKLSSVTAADTAVYYCARDRLDYSYNYGMDVWGQGTTVTVSS
VL: DIQMTQSPSSLSASVGDRVTITCRASQSISSYLNWYQQKPGKAPKLLIYGASSLQSGVPSRFSGSGSGTDFTLTISSLQPEDFATYYCQQVYSAPFTFGGGTKVEIK
notes: Fab fragment; also called Ab17

koff [6]: 0.00453 s⁻¹
kon [6]: 665000 M⁻¹ s⁻¹
B2: ADI-10163 IgG (antibody, V domains shown)
VH: B1 VH
VL: B1 VL
notes: IgG; also called Ab17

koff [1]: 0.0125 s⁻¹
kon [1]: 212000 M⁻¹ s⁻¹
koff [2]: 0.0125 s⁻¹
kon [2]: 212000 M⁻¹ s⁻¹
koff [3]: 0.0125 s⁻¹
kon [3]: 212000 M⁻¹ s⁻¹
koff [4]: 0.0125 s⁻¹
kon [4]: 212000 M⁻¹ s⁻¹
koff [5]: 0.131 s⁻¹
kon [5]: 674000 M⁻¹ s⁻¹
B3: ADI-10173 Fab (Fab, V domains shown)
VH: QVQLVQSGAEVKKPGASVKVSCKASGYTFTSYYMHWVRQAPGQGLEWMGIINPSGGSTTYAQKFQGRVTMTRDTSTSTVYMELSSLRSEDTAVYYCAREAADGFVGERYFDLWGRGTLVTVSS
VL: not shown
notes: Fab fragment; also called Ab22

koff [6]: 0.00314 s⁻¹
kon [6]: 324000 M⁻¹ s⁻¹
B4: ADI-10173 IgG (antibody, V domains shown)
VH: B3 VH
VL: not shown
notes: IgG; also called Ab22
